test: soluble on expression in E. coli; label from the status in PepcDB or PDB records

| Sequence | soluble on expression in E. coli |
| --- | --- |
| MSLEQTVDIEVQGIRGFRAVRNTDLNVNLINKEEMDGSERYQHLVTKAVDRGLRVFGYYESSVRFERKQRQGKRDLLIAHVTPGEPTKIAGTDVQIEGEAAQDENFNALRKNLPKDGVLVEHQTYDDYKTAISRLALNRGYFDGNFKISRLEISPETHQAWWRMLFDSGVRYHYGNITFSHSQIRDDYLNNILNIKSGDPYLMNNLSDLTSDFPSSNWFSSVLVQPNVNHKSKTVDVEIILYPRKKNAMELGVGFSTDGGVHGQIGWTKPWINSRGHSLRSNLYLSAPKQTLEATYRMPLLKNPLNYYYDFAVGWEGEKENDTNTRVLTLSALRYWNNAHGWQYFGGLRMRYDSFTQADITDKTLLLYPTVGFTRTRLRGGSFATWGDVQKITFDLSKRIWLSESSFIKVQASSAWVRTYAENHRVVARAEIGYLHTKGIEKIPPTLRFFAGGDRSVRGYGYKKIAPKNRNGKLVGGSRLLTTSLEYQYQVYPNWWAATFADSGLAADNYTAKELRYGTGVGVRWASPVGAIKFDIATPIRDKDNSKNIQFYIGLGTEIEGHHHHHH | not soluble |
| MSLERLNKPSAPRYSRLREWVVGCAPNDLVVVKFGGSVLNGSPGFLAAGRLVLGLLESGLEPVVVVSAVKGVTDALLSSFERRDPGVGGAVGKTYLSIARELGLPPESVRDVSLASAEVSKLLWAAEVLGQWTPRVRDLVVSYGERLSAALMAGLLRRLGVEARWLGGGEAGIVTDGEFGDATPLYGYTEGVIRERLEPMLEEGVVPVVAGFTGATREGDTTLLGRGGSDLTATLLASALGAGRVVLYTDVPGILSGDPRVVGEPRRVGYMSYEEAWEVARLGLRKFHPRTFEPLIAGGLGVEVVVSDLRGRSTRIGPGRGGPPLKVVSLSRGVARLVVRGPSMAGKRGFLSRLAGLLAGRGVNILAIRQPPSETAIELVVDERDLPAAVEELGARSGAAGVRLEVERGFDVVSIVGWGAVEALPEALSAAEKTGGRLLSTGELSPSISILARGRTSPELARLLHRRVVESWVTGEGHHHHHH | not soluble |
| MSLESPELKALVDAGKLPAVEKRLPKEPLVLTPLESVGTYGGTWRTATFGGGDSEIERSIGYTRLVRWNPEWTEVIPDIAKSVEVNDNATEYTFTLREGTRWSDGEPFTADDLVWWNENVLRNTKITPAAPNWLTAGGETVKVEKLADDKVIFKFAAPNGLFLMNMATVRGSDILAAAPAHYLKQFHKDFNPDGIDALVKAAGATDWVQLFNNKIGFPGRWRDLGRPTLDAWVLTAPYNGTTQVVGERNPYYAKVDTAGNQLPYFDRITIDVMQDTQAIILKAISGEIDMQNRFIETTDARTVIVQNQEKGGYGLFIARPAWSNALLITLNQTHKNPALRAVFSNKDFRIGLSYAINREELNQLIYAGQAKPYQAAPREGTALYDEKMATQYLEYNVDLANQYLDKAGLTKHDAEGYRLGQDGKRITFAIDALTGSPIQVDALEMIQRYWRAVGIDMQPRPAERSLIFSRLQNNENDGLGWVGGGGYDFLGLLDPKWYFPHEYESSFATAWGLYYQNPKDPNAQEPSPAAKKQMDLYRQVQEAPTLEKQLAAMKELLAITRDEFYVIGTNLEPDRVGIVKTNMRNVPKVIPSTSFYMTPGPAKPETFYYQQEGHHHHHH | soluble |
| MSLETELPQAQDGSVRLLQITDTHLFASAEGRLLAVRTAESLAAVLERVQANDHPFDLILATGDLSQDHSPESYQRFASMMAPLARPIYWLPGNHDDGPLMTEYLHAAGISEAKQLVGEHWQVILLDTQVRGKPHGVLGDHQLAALDQALRQHPERHALIALHHQAVPVGCAWLDQHNLKPTTLFAVLARHPQQKTILFGHVHQEFDETAGMRLIASPSTCIQFKPLSDGLRAGREGHHHHHH | not soluble |
| MSLFFSLPYRFNVLSVVIASIPTLAFPTTFSDSTFFHKDWEIVCDNTLTCRAAGYSPEEKGMGEDTGTQDVSLLITRHAGQNTPITAEVTLAEVDKEIPKGTRLTLAIDGVDKGVLTSTEDNLWQLNETQIPAVLQALKGRGKVAFLHDGMVSELSGAGAYAVLLKMDERQGRIGTTDAITKKGNKSSELSAVAAPVIYAAATSQEPSRNLTNAEQAAIQKKLLKTLKEDDCYDFPPQEERVAEPMMITPLNGSMSLLSTLCWRAAYNEGYAYWVIDNAMQTQPQLMTTIGVGYENGEITAVQKGRGLADCMSDSAWVWDGKTFQQSRASITGSCRMIRLGGTWDLPYWTATVIRPGKEGHHHHHH | soluble |
| MSLFINMYRQLLSLPLSALVKNNPIPANPIEELSLNIHQPIVYVLPYTSQTDFVIFRRNCLALGLPDPAEKNEINGVKLPRYVYLDEGRRIFKSKGAKDETTTIFNKYLELHRTSESLDVQLIPVSVLWGRSPGQEDKSDLPNLRLLNGIQKTFAAIWFGRDTFVRFSQAVSLRYMVVEHGSDEKIAQKLARVAKMHFAKQRISATGPRLPNRQAMFNKLLQSEAIRRAIEDEAKSKNISIEKAQKEAYKILDEIAADVSHSSLRAVDRFLRWLWNKLYSGINVQNSNRVRKLALEGHEIVYVPCHRSHIDYLLLSYVLYHQGLVPPHIAAGINLNFWPIGRMFRSWGAFFIRRTFKGNRLYSAIFREYLSELFHRGYSVEYFIEGGRSRTGRLLAPKTGMMSMTLQALQHSQTRPISIVPVYVGYEHVLEVDTYAKELRGAAKEKENAGLVLRVIKKLRNLGQGFVNFGEPITLSNYLSQHFPDWKEQNHEEKPQWFTPAVNNISKQVMININKAAAVNSMNLVGTALLSSRQRALSREQLLEQLSSYQQLLQNVPYSTDVVLPNVTPQAMLEHVLALDRIGVLIEKDNFGEIVRLERSSAVLMTYYRNNIQHLFVLPSLVASIILHYEAIQKDLLLDAIRKIYPFLQGELFLHFNEDELNVQIHQIINEFARQSVINSNDNFLSINKSKVRILQLWSAGMLEILQRYYITVTILQKQPAISRAELEKESQLVAQRLSVLHGINAPEFFDKAVFSSFIANLKEQRYFDESGYTVLDKIEELASTLSHLISTEICLTVKGTIEKSEDLSSEGHHHHHH | soluble |
| MSLFTNLVKMGKKLKNLTKKYQLNKEKIEKFITVRKRLTFLGERPSVVEKPVVVKFGGTSVRYAFEEALELVANLNENTRTIVVVSALAGVTDCLLRLANGDMSALLEIEEIHEELSQELDVQLDHLMYQLHKTLNSKSSFPSKEAFVDEIASFGERFSAELFSEGLKILGINAKAVDSKDILFAKGDYGNAEVDFKKSVYGAGILYRMLRRGIVPVVTGYYGNLNGFRATFGRGGSDYSATSIARLVNAKATLIMSDVEGIYTADPKLVPSAKLIHYISYREAKIAAKLGMKALHHRAIDPVEGRIPVILGKTRDLKFGTLISHKSQGIPVVVHKLIEDHAEVSVVSTRRSFSLPYEVYEEGDFYFKIKIPKEQFLEVLKDIHRRVVENESLRPSYDSELWAWVEGHHHHHH | not soluble |
| MSLGAMKRLALLVPERANIASLENARQGFLAANGFLRERGCAPRFDVRLVAATPQVRLDHGRITVQADTVLEAVGEVDLCVVPPIQGDPQPALQENGALIDWLAGYYKNGGEVASLCVGAALLAAGGVLDGQRAVVHWAAQSDFGRLFPAVRWVSDRVVLEANGIYTSGGAFSAAHLVLHLVDKYTDRETAIWCAKLFQLDWSREGHHHHHH | soluble |
| MSLGDGNVEVAIIAYPYMSNFNEFYALVKSNARVSFVRKPKETAKADLVILPGSRNTLESLKWLVENGFVEQLRQRSMNILGICGGFQILGKKIVDPYGIEAGYPTEYEGLGIFDINVHYSKDKVVSMTTGISEYGEMNGYEIRRGVIKYMGEKPLLKITLRNGEKVSVEDGAKKDNIIGISVHGTLFSDGMKKLLKEFNINIHSQSMEEGHHHHHH | soluble |
| MSLGDLEQKIIAMDLWHLALPVVSARDHGIGRVEGSCEIVVLRLVAEGGAEGFGEASPWAVFTGTPEASYAALDRYLRPLVIGRRVGDRVAIMDEAARAVAHCTEAKAALDSALLDLAGRISNLPVWALLGGKCRDTIPLSCSIANPDFDADIALMERLRADGVGLIKLKTGFRDHAFDIMRLELIARDFPEFRVRVDYNQGLEIDEAVPRVLDVAQFQPDFIEQPVRAHHFELMARLRGLTDVPLLADESVYGPEDMVRAAHEGICDGVSIKIMKSGGLTRAQTVARIAAAHGLMAYGGDMFEAGLAHLAGTHMIAATPEITLGCEFYQASYFLNEDILETPFRVEAGQVIVPDGPGLGARADPEKLEHYAVRRSGEGHHHHHH | soluble |
| MSLGEAEARVVLNMNTGWAFHRGEVESGGQPGLDDSGWIAAIIPHIMQLEKKHCGGDIIYDGVGWYRRTFRVPSQYKDKQIKISFEGVMNACEVYLNGQKISAHRGGYVGFVTDITTRINWDRDNLLAVRVSAEYDPLTPPGKPQAGMDFYYYSGIYRDVEMVISDPLHITHALEEEEVAGGGIFVTYPVVGKEKAVTHVKAHVRNEGKRKRKAQLRTQLIDKSGKIVACQLTPFRLSAGEAIHLEQNLEIVHPSLWHPYDPNLYTLQNEIVENGKVVDCHTESIGIRTIAYTRDGGFYINGESLYLRGANRHQAFAHIGDAAANSMQERDVIDLKRGGCNAVRAAHYPQDPAFLAACDKYGLLVVECIPGWQYFKNDSTFISRLYEVGKQMIRRDRNHPSVILWETALNESRYPAEIARNLYAIAHIEYPGDQMYTAGDYFGHADRVDCFDVFYKQVSRFPKDGDVMSNYPEDQIAVKPLFCREWGDGVGEKPRVSLMENEEEQLKQCRGRFLQLNGHGYFDWCMLDANPRMGGHFLWSYNDYARGAEQETMFCGIVDINRYPKFSYYMMQSMRDKEISQEGHHHHHH | soluble |
| MSLGETAGKLPRKPTLGPETAGATLVIPGETDRLASLYARAQAEGGKVVLWAGGDAPNQMDWLKTAFESRFPGVTLDVTVDLSKFHDLRIDQELAAGTLTPDVAMLQTTFDFDKWKARDVLLRYKPVGFARQKKGYADPDGAYVTAYNNAFVPTYASVRLPAERYPTRFADYLKPAFKGKLVLTYPHDDDAVLYVYDKLERRYGSGFLRALAAQKPNFLRGTAAPAASVGADSIGSLGNLTGYATDSDTPAGYFIPTDEPFIVWNQRAAIFKAARHPATAKLLLSYLGSAEFQSSYGGWRARADVGEAPGLPPLESLKNVDVHDFTRWMTDRQRVASLRRHMAEIFGPVRGESPLRDPALMSLLGLTANDIVALPEPDLPIYEGHHHHHH | soluble |
| MSLGFFNKLRQLAEDGTKMAQDGYARFNNAAFADATMAACALIGAADGQIDSQERSRTAQFITSSDKLRTFDVSKLREKYERYCDVISRDFDFGKIELMQVIGKVRKPEEARAVVQLAVVIANADGDFDAREQAVMREVIHALGLSPAEFGEGGSHHHHHH | soluble |
| MSLGIENDRKLVVNCLPLTEAERAQFTRAAKGMPQEFVGDPAQRGSMNWTAEIPDELKAYATAVIGNITPETCAQCPRLEWLQTWSAGVDKYQHPGILQPGSMLTNATGAYGQSVSEHMFAMMWAIMKNLHIYAVGNPNAAWQDAGRVISPDGKTALIIGTGDIGSHFARLCKSVGMSTIGIRRNPTVEAPGIDHMVGFESLDDVLQYADVIAMCVPSTPSTHHLLNAERIAKLKTDATVINAGRGDAIDTQALADALANGMIRGAGLDVTEPEPLPAASPLWSEPKCLITPHVAGGNHLESTERRIIAIALGNVRCYANGQSLDNRMPLKGEGHHHHHH | soluble |
| MSLGIPLSQLIVESPKPLSSGITGLDEILNLGFQARSIYEIFGPPGIGKTNFGIQLVCNSLEGIQQSEINDDKILWIETFQEMPINILRERFQKFKIVEENVKRVRITKFGQLLYFFQNLFKLSQSVRYKLVIIDGFSQLVCDHLCTLSKRGGGMIDKTIHELKCRHLILIFTVMTKYTHSTGSTIIVLNDCMNTAFQSNEFESLEEYYEILDDGSNFFVNSNNERRKNNVHILKSALVANIAMGSKDSTWEVFLRDRIGLFRDWNEQVDETVFVKSKRVKASSSQSNEGCTTIKEMRINKRNFENLRIAIVFNLHGEDRKREGRNLKRSRSSDDRNYIVKFDFDKATGQLRDIIDLKPDTANIASFPTLSTSSSSCSQVFNNIDSNDNPLPNAEGKEEIIYDSEG | not soluble |

Source: the DeepSol protein solubility set
